The results in this text go back to PMC5047623 (PLoS ONE, 2016).

This experiment deals with T1, purified α5ß1 ectodomain protein (human, UniProt P08648 42-995; P05556 21-728).
T1 construct: signal peptide in the construct; human integrin alpha-5, residues 1-995; human integrin beta-1, residues 1-728; Thrombin cleavage site between the integrin and the Fc; residues of the site may remain; also called purified and untagged α5ß1; α5ß1 integrin; not shown: Fc, C-terminal, cleaved
In words: SPR; ProteOn XPR36, GLC chip; rhTie1 (4750 RU) and rhTie2 (6400 RU) amine-coupled; α5ß1 at 3 μM flowed at 60 μL/min for 3 min; 25 degrees Celsius; 20 mM Tris, 100 mM NaCl, 1 mM MnCl2, 2 mM CaCl2 pH 7.5; BSA channel subtracted. Conditions: both partners purified. (In general: Surface plasmon resonance follows binding to a sensor surface in real time, without labels.)

T1 sequence (P08648 42-995, chain 1 of 2): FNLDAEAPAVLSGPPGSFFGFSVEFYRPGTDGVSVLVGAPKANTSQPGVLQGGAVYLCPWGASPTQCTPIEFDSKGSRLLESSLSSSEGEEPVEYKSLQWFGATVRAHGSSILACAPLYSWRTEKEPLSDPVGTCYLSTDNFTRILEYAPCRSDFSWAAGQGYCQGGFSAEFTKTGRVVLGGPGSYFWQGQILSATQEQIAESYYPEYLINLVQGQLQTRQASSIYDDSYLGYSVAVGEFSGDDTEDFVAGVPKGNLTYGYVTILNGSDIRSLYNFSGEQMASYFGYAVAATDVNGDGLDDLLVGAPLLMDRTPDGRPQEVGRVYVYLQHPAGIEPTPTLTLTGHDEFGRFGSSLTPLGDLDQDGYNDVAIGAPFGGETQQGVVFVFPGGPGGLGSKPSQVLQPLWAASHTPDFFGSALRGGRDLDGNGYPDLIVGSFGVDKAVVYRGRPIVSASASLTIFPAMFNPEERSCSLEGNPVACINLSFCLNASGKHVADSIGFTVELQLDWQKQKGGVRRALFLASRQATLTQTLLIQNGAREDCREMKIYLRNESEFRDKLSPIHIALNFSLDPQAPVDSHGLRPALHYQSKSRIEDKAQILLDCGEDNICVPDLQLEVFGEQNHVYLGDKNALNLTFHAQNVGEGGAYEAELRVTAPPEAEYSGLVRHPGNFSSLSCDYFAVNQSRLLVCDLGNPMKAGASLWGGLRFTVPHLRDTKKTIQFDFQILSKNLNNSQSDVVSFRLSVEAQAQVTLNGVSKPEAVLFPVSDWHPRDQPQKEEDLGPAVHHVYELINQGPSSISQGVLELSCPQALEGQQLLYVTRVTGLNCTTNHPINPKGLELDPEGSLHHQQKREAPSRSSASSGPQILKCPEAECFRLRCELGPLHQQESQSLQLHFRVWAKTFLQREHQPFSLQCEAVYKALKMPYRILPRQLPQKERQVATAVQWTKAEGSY
T1 sequence (P05556 21-728, chain 2 of 2): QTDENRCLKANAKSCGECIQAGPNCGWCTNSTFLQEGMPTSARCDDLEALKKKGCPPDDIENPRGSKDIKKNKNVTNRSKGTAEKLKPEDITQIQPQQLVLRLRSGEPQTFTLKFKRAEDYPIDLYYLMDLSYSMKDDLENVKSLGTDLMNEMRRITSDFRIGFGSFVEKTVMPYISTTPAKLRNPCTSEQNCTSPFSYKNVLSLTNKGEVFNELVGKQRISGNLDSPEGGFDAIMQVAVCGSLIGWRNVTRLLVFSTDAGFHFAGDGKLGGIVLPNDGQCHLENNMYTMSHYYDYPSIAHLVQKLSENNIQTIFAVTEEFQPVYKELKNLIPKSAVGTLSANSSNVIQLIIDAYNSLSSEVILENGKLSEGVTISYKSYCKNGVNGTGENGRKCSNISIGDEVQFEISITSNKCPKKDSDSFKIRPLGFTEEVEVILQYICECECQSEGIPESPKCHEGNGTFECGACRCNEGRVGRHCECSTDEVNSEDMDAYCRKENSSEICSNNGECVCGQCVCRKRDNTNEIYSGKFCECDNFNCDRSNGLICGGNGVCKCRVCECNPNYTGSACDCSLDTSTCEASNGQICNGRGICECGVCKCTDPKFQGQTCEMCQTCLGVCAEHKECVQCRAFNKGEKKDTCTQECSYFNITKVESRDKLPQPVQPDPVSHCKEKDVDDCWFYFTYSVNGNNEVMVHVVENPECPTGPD

B1: recombinant human Tie1 (rhTie1) extracellular domain, Fc tagged (Fc fusion, UniProt P35590 22-759, looked up)
chain: AVDLTLLANLRLTDPQRFFLTCVSGEAGAGRGSDAWGPPLLLEKDDRIVRTPPGPPLRLARNGSHQVTLRGFSKPSDLVGVFSCVGGAGARRTRVIYVHNSPGAHLLPDKVTHTVNKGDTAVLSARVHKEKQTDVIWKSNGSYFYTLDWHEAQDGRFLLQLPNVQPPSSGIYSATYLEASPLGSAFFRLIVRGCGAGRWGPGCTKECPGCLHGGVCHDHDGECVCPPGFTGTRCEQACREGRFGQSCQEQCPGISGCRGLTFCLPDPYGCSCGSGWRGSQCQEACAPGHFGADCRLQCQCQNGGTCDRFSGCVCPSGWHGVHCEKSDRIPQILNMASELEFNLETMPRINCAAAGNPFPVRGSIELRKPDGTVLLSTKAIVEPEKTTAEFEVPRLVLADSGFWECRVSTSGGQDSRRFKVNVKVPPVPLAAPRLLTKQSRQLVVSPLVSFSGDGPISTVRLHYRPQDSTMDWSTIVVDPSENVTLMNLRPKTGYSVRVQLSRPGEGGEGAWGPPTLMTTDCPEPLLQPWLEGWHVEGTDRLRVSWSLPLVPGPLVGDGFLLRLWDGTRGQERRENVSSPQARTALLTGLTPGTHYQLDVQLYHCTLLGPASPPAHVLLPPSGPPAPRHLHAQALSDSEIQLTWKHPEALPGPISKYVVEVQVAGGAGDPLWIDVDRPEETSTIIRGLNASTRYLFRMRASIQGLGDWSNTVEESTLGNGLQAEGPVQESRAAEEGLDQ
notes: human Tie1, full extracellular domain; amine-coupled to a GLC sensor chip; also called immobilized Tie1
Regarding B1, the binding result is on record as “binds”.
